Data taken from patent US20100278838A1, “EPHA2 MONOCLONAL ANTIBODIES AND METHODS OF USE THEREOF” (MEDIMMUNE, LLC, priority 2002, published 2010).

B1: Eph099B-208.261: EphA2 monoclonal antibody; hybridoma ATCC PTA-4573; VL SEQ ID NO:1, VH SEQ ID NO:5 (antibody, listed as Homo sapiens, V domains shown)
VH: QVQLQQPGAELVKPGASVKLSCKASGYTFTSYWMHWVKQRPGQGLEWIGMIHPNSGSTNYNEKFKSKATLTVDKSSSTAYMRLSSLTSEDSAVYYCARGGNMVGGGYWGQGTTLTVSS
VL: QIVLTQSPALMSASPGEKVTMTCSASSSVSYMYWYQQKPRSSPKPWIYLTTNLASGVPARFSGSGSGTSYSLTISSMEAEDAATYYCQQWSSNPFTFGSGTKLEIR
B2: EA2: EphA2 agonistic monoclonal antibody; ATCC deposit no. PTA-4380; co-pending application Ser. No. 10/436,783; VL SEQ ID NO:33, VH SEQ ID NO:37 (antibody, listed as Homo Sapiens, V domains shown)
VH: DVKLVESGGGLVKPGGSLKLSCAASGFTFSSYTMSWVRQTPEKRLEWVATISSGGTYTYYPDSVKGRFTISRDNAKNTLYLQMSSLKSEDTAMYYCTREAIFTYWGQGTLVTVSA
VL: DIKMTQSPSSMYASLGERVTITCKASQDINNYLSWFQQKPGKSPKTLIYRANRLVDGVPSRFSGSGSGQDYSLTISSLEYEDMGIYYCLKYDEFPYTFGGGTKLEIK
B3: Eph099B-233.152: EphA2 monoclonal antibody; hybridoma ATCC PTA-5194; VL SEQ ID NO:17, VH SEQ ID NO:21 (antibody, listed as Homo sapiens, V domains shown)
VH: EVKLVESGGGLVQPGGSLSLSCAASGFTFTDYSMNWVRQPPGKALEWLGFIRNKANDYTTEYSASVKGRFTISRDNSQSILYLQMNALRAEDSATYYCVRYPRYHAMDSWGQGTSVTVSS
VL: DIVLTQSPATLSVTPGDSVNLSCRASQSISNNLHWYQQKSHESPRLLIKYVFQSISGIPSRFSGSGSGTDFTLSINSVETEDFGMYFCQQSNSWPLTFGAGTKLELK

How the values were obtained:
immobilized EphA2-Fc = target: T1, immobilized EphA2-Fc (Homo sapiens, UniProt P29317); assay: BIACORE surface plasmon resonance kinetic analysis (Koff); type: binding; conditions: FIG. 15
T1 construct: consisted of the extracellular domain of human EphA2 linked to human immunoglobulin
Source text: FIG. 15: Kinetic analysis of EphA2 monoclonal antibodies. BIACORE™ (surface plasmon resonance-based) assays were used to assay the kinetics of EphA2 monoclonal antibody binding to immobilized EphA2-Fc. Eph099B-208.261 is indicated by a solid line, Eph099B-233.152 is indicated by a dotted line, EA2 is indicated by a dashed line, and the negative control is indicated by squares.
The surface plasmon resonance-based BIACORE™ assay was used to measure the Koff rates of the monoclonal antibodies of the invention. IgG present in the hybridoma supernatant was used for measurement.
EphA2-Fc was immobilize to a surface on a CM5 sensorchip using a standard amine (70 μl of a 1:1 mix of NHS/EDC) coupling chemistry. Briefly, a 400 nM solution of EphA2-Fc in 10 mM NaOAc, pH4, was then injected over the activated surface to a density of 1000-1100 RU's. Unused reactive esters were subsequently “capped” with a 70 μl injection of 1M Et-NH2. Similarly, an activated and “capped” control surface was prepared on the same sensor chip without protein to serve as a reference surface.
A 250 μl injection of each of the EphA2 hybridoma supernatants was made over both the EphA2-Fc and control surfaces, and the binding responses were recorded. These supernatants were used undiluted. Following each injection, at least 10 min. of dissociation phase data was collected. […]

[1] = tested on: malignant MDA-MB-231 tumor cells; assay: Inhibition of colony formation in soft agar; type: cell-based; conditions: MDA-MB-231, single dose 5 μg/ml, 37° C.
Description: FIG. 5: EphA2 antibodies inhibit malignant tumor cell growth in soft agar. A single dose of 5 μg/ml of Eph099B-208.261 (black bar), EA2 (white bar) purified EphA2 antibodies or a negative control antibody, 1A7 (gray bar) were incubated with malignant MDA-MB-231 tumor cells for the indicated time at 37° C. in soft agar. Results are reported as colonies per high-powered field (HPF).
(§1) The ability of the antibodies of the invention to inhibit cancer cell formation in soft agar was assayed as described in Zelinski et al. (2001, Cancer Res. 61:2301-6). Briefly, cells were suspended in soft agar for 7 days at 37° C. in the presence of purified antibody or control solution (PBS). Antibodies were administered at the time of suspension in both bottom and top agar solutions. Colony formation was scored microscopically using an Olympus CK-3 inverted phase-contrast microscope outfitted with a 40× objective. Clusters containing at least three cells were scored as a positive.

[2] = tested on: cancer cell colonies already formed in soft agar; assay: Elimination of cancer cell colonies already formed in soft agar; type: cell-based; conditions: antibodies added on third day; data not shown
Description: as §1
The ability of the antibodies of the invention to eliminate cancer cell colonies already formed in soft agar was assayed. Assay methods were similar to those described above except that antibodies were not added to the cancer cells until the third day of growth in soft agar.

EphA2 = EphA2 (Homo sapiens, UniProt P29317); assay: EphA2 expression level in MCF-7^EphA2 cells after EA2 (western blot); type: cell-based; conditions: 3 μg/ml EA2
Description: FIGS. 13A-13C: EphA2 agonistic antibody EA2 decreases malignant growth. MCF-7^EPhA2 cells were incubated in the presence of 3 μg/ml of EA2 for the time indicated prior to sample extraction and western blot analyses with an EphA2-specific antibody (D7). (B) The membrane was stripped and re-probed with a β-catenin-specific antibody as a loading control. (C) 1×10^5 control or MCF-7^EphA2 cells were suspended in soft agar in the presence or absence of tamoxifen (TAM, 1 μM) and EphA2 agonistic antibody (EA2, 10 μg/ml).
Growth MCF-7^EphA2 cells which had decreased EphA2 expression levels was assayed in soft agar. The EphA2 monoclonal antibody EA2 induced EphA2 activation and subsequent degradation. […] Whereas EA2 decreased soft agar colonization (by 19%), the combination of EA2 and tamoxifen caused a much more dramatic (>80%) decrease in soft agar colonization.

[3] = target: T2, EphA2-Ephrin A1-Fc complex (Homo sapiens, UniProt P29317); assay: Binding of biotinylated protein to EphA2-Ephrin A1-Fc complex on microtiter plate; conditions: FIG. 18A
T2 construct: consisting of the extracellular domain of EphA2 linked to human IgG1 constant region
Description: FIGS. 18A-18B: EphA2 EA2 epitope is distinct from Eph099B-233.152 epitope and ligand binding site. (A) EphA2-Fc was incubated with and bound to immobilized Ephrin A1-Fc. Labeled Ephrin A1-Fc (black), EA2 (white) or Eph099B-233.152 (grey) was incubated with the EphA2-Ephrin A1-Fc complex and amount of binding was measured. (B) EphA2-Fc was incubated with and bound to immobilized Ephrin A1-Fc. Labeled EA2 was then incubated with the EphA2-Ephrin A1 complex. Unlabeled competitor was incubated with EphA2-Ephrin A1-EA2 complex in the indicated amount. Competitors were Ephrin A1-Fc (black), EA2 (white) or Eph099B-233.152 (grey).
A microtiter plate was coated with […] Ephrin A1-Fc overnight at 4° C. A fusion protein consisting of the extracellular domain of EphA2 linked to human IgG1 constant region (EphA2-Fc) was incubated with and bound to the immobilized Ephrin A1-Fc. Biotinylated Ephrin A1-Fc, EA2, or Eph099B-233.152 was incubated with the EphA2-Ephrin A1-Fc complex and amount of binding was measured.

EphA2, sequence (P29317 24-976): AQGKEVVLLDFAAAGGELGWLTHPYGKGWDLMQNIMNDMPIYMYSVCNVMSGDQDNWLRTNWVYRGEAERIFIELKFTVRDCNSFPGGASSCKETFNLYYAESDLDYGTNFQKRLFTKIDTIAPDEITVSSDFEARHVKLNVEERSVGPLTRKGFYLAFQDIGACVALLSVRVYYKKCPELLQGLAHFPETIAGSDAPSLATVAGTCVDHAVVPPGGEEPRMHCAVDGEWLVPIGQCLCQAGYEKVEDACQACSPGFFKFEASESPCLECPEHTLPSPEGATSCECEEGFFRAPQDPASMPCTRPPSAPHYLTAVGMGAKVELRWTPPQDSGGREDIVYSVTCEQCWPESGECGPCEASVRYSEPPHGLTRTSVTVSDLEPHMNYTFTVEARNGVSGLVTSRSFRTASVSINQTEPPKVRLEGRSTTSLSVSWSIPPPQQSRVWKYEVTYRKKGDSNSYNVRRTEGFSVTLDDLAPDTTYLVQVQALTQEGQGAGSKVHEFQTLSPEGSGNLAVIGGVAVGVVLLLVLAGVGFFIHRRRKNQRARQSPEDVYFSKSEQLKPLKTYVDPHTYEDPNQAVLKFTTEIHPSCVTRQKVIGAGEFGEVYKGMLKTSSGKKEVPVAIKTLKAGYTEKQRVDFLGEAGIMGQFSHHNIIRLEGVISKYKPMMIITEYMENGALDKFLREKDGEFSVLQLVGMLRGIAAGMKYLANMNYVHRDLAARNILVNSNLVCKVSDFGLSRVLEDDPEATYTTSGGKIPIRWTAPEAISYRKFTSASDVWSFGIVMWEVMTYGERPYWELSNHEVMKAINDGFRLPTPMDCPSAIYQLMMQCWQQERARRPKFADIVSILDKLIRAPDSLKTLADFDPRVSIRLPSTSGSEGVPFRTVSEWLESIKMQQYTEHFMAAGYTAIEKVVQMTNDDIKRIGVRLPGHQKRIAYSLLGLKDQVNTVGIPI
T1 sequence (P29317 24-537 limits assumed): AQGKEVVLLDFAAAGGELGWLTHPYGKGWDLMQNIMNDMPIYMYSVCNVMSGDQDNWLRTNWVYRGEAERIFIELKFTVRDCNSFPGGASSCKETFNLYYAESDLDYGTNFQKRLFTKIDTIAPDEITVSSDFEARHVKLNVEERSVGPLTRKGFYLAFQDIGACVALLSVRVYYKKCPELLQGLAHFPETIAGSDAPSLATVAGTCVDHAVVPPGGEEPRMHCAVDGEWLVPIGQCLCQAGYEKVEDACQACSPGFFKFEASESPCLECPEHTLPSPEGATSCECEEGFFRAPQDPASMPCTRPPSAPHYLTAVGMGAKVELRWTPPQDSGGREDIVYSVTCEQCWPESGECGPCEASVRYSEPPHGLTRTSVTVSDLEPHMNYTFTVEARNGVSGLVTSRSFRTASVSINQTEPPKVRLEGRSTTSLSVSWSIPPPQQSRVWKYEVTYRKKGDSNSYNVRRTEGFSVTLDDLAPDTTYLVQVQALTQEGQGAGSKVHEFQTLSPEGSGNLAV
T2 sequence (P29317 24-537 limits assumed): as above
T2 sequence (P20827 19-182 partner limits assumed): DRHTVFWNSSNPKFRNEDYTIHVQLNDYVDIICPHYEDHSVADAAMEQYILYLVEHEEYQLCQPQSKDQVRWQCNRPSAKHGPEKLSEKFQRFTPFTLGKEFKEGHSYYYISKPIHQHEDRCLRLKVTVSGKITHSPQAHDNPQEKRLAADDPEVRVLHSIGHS

| Molecule | Koff rate compared with EA2 (immobilized EphA2-Fc) | Colony growth in soft agar [1] | Effect on cancer cell colonies already growing in soft agar [2] | EphA2 expression level (EphA2) | Time EphA2 remained undetectable (EphA2) [h] | Amount of binding to EphA2-Ephrin A1-Fc complex [3] |
| --- | --- | --- | --- | --- | --- | --- |
| B1 | slower Koff rates than EA2 | inhibited colony growth in soft agar | can slow or reduce cancer cell colony growth in soft agar |  |  |  |
| B2 |  | inhibited colony growth in soft agar |  | Decreased levels of EphA2 expression were observed within two hours | ≥ 24 | considerable levels |
| B3 | slower Koff rates than EA2 |  | can slow or reduce cancer cell colony growth in soft agar |  |  | considerable levels |
